Results taken from PMC7293037, “Fuse to defuse: a self-limiting ribonuclease-ring nuclease fusion for type III CRISPR defence” (Nucleic Acids Research, 2020).
pKd: −log10 of the molar value.

Key:
[1] = tested on: Csx1-Crn2 H495A (Marinitoga piezophila); assay: EMSA; details: apparent; both CARF and Crn2 sites intact, no cA4 cleavage in Crn2 site; cyclic tetra-adenylate, head-to-tail closed ring (no free 5' or 3' end); EMSA: 10 nM labelled cA4, 20 mM Tris-HCl pH 7.5, 150 mM NaCl, 2 mM MgCl2, 2 uM BSA, 10 min at 25 C; native 15% PAGE in 1x TBE at 28 C
[2] = tested on: Csx1-Crn2 S452Y (Marinitoga piezophila); assay: EMSA; details: cyclic tetra-adenylate, head-to-tail closed ring (no free 5' or 3' end); EMSA: 10 nM labelled cA4, 20 mM Tris-HCl pH 7.5, 150 mM NaCl, 2 mM MgCl2, 2 uM BSA, 10 min at 25 C; native 15% PAGE in 1x TBE at 28 C

Sequence: AAAA [cA4 (cyclic tetra-adenylate)]
- pKd [1]: 7.70
- pKd [2]: 6.00
